Laboratory results reported in patent US20140087995A1 (published 2014).
Numbered stars: 1 amine (or outer) side, 2 acyl side, 3 side chain; on linkers, the order of the positions; unused ones are H or OH. Bridge positions count the residues as written; N and C are the ends. Side chains are listed from the residue outwards. Ends that are not written are not given here. * marks the point of attachment. C20 diacid = O=C(O)CCCCCCCCCCCCCCCCCCC(=O)*; γGlu = O=C(O)[C@H](CCC(=O)[*:2])N[*:1]

T1: rat calcitonin receptor (rat, UniProt P32214 25-516)
T1 construct: whole, on cells; also called rCTR; rat calcitonin (a) receptor
T1 sequence (looked up): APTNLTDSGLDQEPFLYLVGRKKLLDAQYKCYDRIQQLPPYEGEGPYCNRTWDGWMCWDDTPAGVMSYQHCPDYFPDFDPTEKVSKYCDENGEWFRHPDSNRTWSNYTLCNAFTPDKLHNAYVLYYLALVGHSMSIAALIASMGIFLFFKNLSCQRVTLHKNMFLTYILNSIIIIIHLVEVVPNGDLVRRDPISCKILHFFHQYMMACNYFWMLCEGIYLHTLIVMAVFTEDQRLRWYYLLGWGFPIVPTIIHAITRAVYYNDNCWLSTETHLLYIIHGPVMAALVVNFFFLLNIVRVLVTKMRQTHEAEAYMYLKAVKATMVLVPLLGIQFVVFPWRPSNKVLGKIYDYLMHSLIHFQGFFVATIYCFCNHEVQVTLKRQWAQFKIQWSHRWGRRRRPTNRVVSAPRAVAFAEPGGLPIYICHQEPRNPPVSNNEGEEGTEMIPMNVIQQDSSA

T2: human calcitonin receptor (human, UniProt P30988 25-474)
T2 construct: whole, on cells; also called hCTR; hCT
T2 sequence (looked up): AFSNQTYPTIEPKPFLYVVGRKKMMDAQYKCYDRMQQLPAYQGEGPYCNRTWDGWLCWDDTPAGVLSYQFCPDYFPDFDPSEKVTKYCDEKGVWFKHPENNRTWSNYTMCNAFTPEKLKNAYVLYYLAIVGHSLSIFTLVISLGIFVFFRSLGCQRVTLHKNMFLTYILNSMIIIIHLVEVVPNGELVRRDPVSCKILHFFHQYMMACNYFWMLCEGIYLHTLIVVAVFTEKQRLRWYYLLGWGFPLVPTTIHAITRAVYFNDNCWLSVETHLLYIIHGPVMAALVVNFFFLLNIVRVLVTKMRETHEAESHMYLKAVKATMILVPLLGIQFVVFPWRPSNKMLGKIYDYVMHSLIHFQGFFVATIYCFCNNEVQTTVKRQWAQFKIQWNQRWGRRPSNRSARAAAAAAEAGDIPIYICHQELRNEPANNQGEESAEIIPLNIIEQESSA

T3: rat amylin receptor (rat calcitonin receptor + rat RAMP 3) (rat, UniProt P32214 25-516; Q9JJ73 23-147)
T3 construct: whole, on cells; also called rAmylin-R; rat amylin 3(a) receptor
T3 sequence (looked up) 1: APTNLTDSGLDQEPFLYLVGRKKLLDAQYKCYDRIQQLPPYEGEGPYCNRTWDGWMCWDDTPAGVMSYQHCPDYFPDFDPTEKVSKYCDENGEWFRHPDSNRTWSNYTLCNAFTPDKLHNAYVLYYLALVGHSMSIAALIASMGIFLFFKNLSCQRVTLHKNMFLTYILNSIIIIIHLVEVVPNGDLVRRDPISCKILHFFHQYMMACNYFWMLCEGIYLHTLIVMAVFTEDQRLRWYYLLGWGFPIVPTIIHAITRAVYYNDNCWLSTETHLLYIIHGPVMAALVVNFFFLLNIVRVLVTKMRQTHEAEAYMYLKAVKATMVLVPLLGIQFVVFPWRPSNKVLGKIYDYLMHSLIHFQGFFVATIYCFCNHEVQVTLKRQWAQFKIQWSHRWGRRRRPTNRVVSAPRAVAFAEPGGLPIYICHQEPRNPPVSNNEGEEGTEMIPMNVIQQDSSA
T3 sequence (looked up) 2: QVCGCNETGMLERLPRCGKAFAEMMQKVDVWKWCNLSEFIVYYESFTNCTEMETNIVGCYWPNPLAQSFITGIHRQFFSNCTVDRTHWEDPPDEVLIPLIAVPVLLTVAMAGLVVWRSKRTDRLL


What was measured:
[1] = biological target: T1, rat calcitonin receptor; experiment: SPA competition with 125I-calcitonin, membranes of BHK cells with rat calcitonin receptor (Assay VIII)
[2] = biological target: T2, human calcitonin receptor; experiment: ratio of binding IC50s: human calcitonin receptor over human amylin receptor (reference)
In short: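 Membranes (35 ng/μL final) + SPA beads, 50 mM Hepes pH 7.4 buffer with 1 mM CaCl2, 5 mM MgCl₂, 0.1% OA, 0.02% Tween20; 120 min, 25° C, shaking; centrifuged, counted; IC₅₀ by one-site binding competition.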

[3] = biological target: T1, rat calcitonin receptor; experiment: ratio of binding IC50s: rat calcitonin receptor over rat amylin receptor (reference)
[4] = biological target: T3, rat amylin receptor (rat calcitonin …); experiment: SPA competition with 125I-rat amylin, membranes of BHK cells with rat calcitonin receptor + rat RAMP3 (Assay VI)

Binder	IC50 [1] [nM]	Ratio hCT/hAmylin binding [2]	Ratio rCT/rAmylin binding [3]	IC50 [4] [nM]
K([γGlu-C20 diacid])CNTATCATQRLAHFLRHSSPNFGAIPSSTNVGRNTY-NH2 (disulfide 2-7; N-terminus assumed; SMILES CC[C@H](C)[C@H](NC(=O)[C@H](C)NC(=O)CNC(=O)[C@H](Cc1ccccc1)NC(=O)[C@H](CC(N)=O)NC(=O)[C@@H]1CCCN1C(=O)[C@H](CO)NC(=O)[C@H](CO)NC(=O)[C@H](Cc1c[nH]cn1)NC(=O)[C@H](CCCNC(=N)N)NC(=O)[C@H](CC(C)C)NC(=O)[C@H](Cc1ccccc1)NC(=O)[C@H](Cc1c[nH]cn1)NC(=O)[C@H](C)NC(=O)[C@H](CC(C)C)NC(=O)[C@H](CCCNC(=N)N)NC(=O)[C@H](CCC(N)=O)NC(=O)[C@@H](NC(=O)[C@H](C)NC(=O)[C@@H]1CSSC[C@H](NC(=O)[C@@H](N)CCCCNC(=O)CC[C@H](NC(=O)CCCCCCCCCCCCCCCCCCC(=O)O)C(=O)O)C(=O)N[C@@H](CC(N)=O)C(=O)N[C@@H]([C@@H](C)O)C(=O)N[C@@H](C)C(=O)N[C@@H]([C@@H](C)O)C(=O)N1)[C@@H](C)O)C(=O)N1CCC[C@H]1C(=O)N[C@@H](CO)C(=O)N[C@@H](CO)C(=O)N[C@H](C(=O)N[C@@H](CC(N)=O)C(=O)N[C@H](C(=O)NCC(=O)N[C@@H](CCCNC(=N)N)C(=O)N[C@@H](CC(N)=O)C(=O)N[C@H](C(=O)N[C@@H](Cc1ccc(O)cc1)C(N)=O)[C@@H](C)O)C(C)C)[C@@H](C)O, synthetic analogue of human amylin; also called compound 85)	146	91.8	46.5	3.14
K([γGlu-C20 diacid])CNTATCATQRLAHFLRHSSPNFGAIPSSTNVGHNTY-NH2 (disulfide 2-7; N-terminus assumed; SMILES CC[C@H](C)[C@H](NC(=O)[C@H](C)NC(=O)CNC(=O)[C@H](Cc1ccccc1)NC(=O)[C@H](CC(N)=O)NC(=O)[C@@H]1CCCN1C(=O)[C@H](CO)NC(=O)[C@H](CO)NC(=O)[C@H](Cc1c[nH]cn1)NC(=O)[C@H](CCCNC(=N)N)NC(=O)[C@H](CC(C)C)NC(=O)[C@H](Cc1ccccc1)NC(=O)[C@H](Cc1c[nH]cn1)NC(=O)[C@H](C)NC(=O)[C@H](CC(C)C)NC(=O)[C@H](CCCNC(=N)N)NC(=O)[C@H](CCC(N)=O)NC(=O)[C@@H](NC(=O)[C@H](C)NC(=O)[C@@H]1CSSC[C@H](NC(=O)[C@@H](N)CCCCNC(=O)CC[C@H](NC(=O)CCCCCCCCCCCCCCCCCCC(=O)O)C(=O)O)C(=O)N[C@@H](CC(N)=O)C(=O)N[C@@H]([C@@H](C)O)C(=O)N[C@@H](C)C(=O)N[C@@H]([C@@H](C)O)C(=O)N1)[C@@H](C)O)C(=O)N1CCC[C@H]1C(=O)N[C@@H](CO)C(=O)N[C@@H](CO)C(=O)N[C@H](C(=O)N[C@@H](CC(N)=O)C(=O)N[C@H](C(=O)NCC(=O)N[C@@H](Cc1c[nH]cn1)C(=O)N[C@@H](CC(N)=O)C(=O)N[C@H](C(=O)N[C@@H](Cc1ccc(O)cc1)C(N)=O)[C@@H](C)O)C(C)C)[C@@H](C)O, synthetic analogue of human amylin; also called compound 81)	61.1	87.2	42.9	1.42
K([γGlu-C20 diacid])CNTATCATQRLAHFLRHSSPNFGAIPSSTNVGSHTY-NH2 (disulfide 2-7; N-terminus assumed; SMILES CC[C@H](C)[C@H](NC(=O)[C@H](C)NC(=O)CNC(=O)[C@H](Cc1ccccc1)NC(=O)[C@H](CC(N)=O)NC(=O)[C@@H]1CCCN1C(=O)[C@H](CO)NC(=O)[C@H](CO)NC(=O)[C@H](Cc1c[nH]cn1)NC(=O)[C@H](CCCNC(=N)N)NC(=O)[C@H](CC(C)C)NC(=O)[C@H](Cc1ccccc1)NC(=O)[C@H](Cc1c[nH]cn1)NC(=O)[C@H](C)NC(=O)[C@H](CC(C)C)NC(=O)[C@H](CCCNC(=N)N)NC(=O)[C@H](CCC(N)=O)NC(=O)[C@@H](NC(=O)[C@H](C)NC(=O)[C@@H]1CSSC[C@H](NC(=O)[C@@H](N)CCCCNC(=O)CC[C@H](NC(=O)CCCCCCCCCCCCCCCCCCC(=O)O)C(=O)O)C(=O)N[C@@H](CC(N)=O)C(=O)N[C@@H]([C@@H](C)O)C(=O)N[C@@H](C)C(=O)N[C@@H]([C@@H](C)O)C(=O)N1)[C@@H](C)O)C(=O)N1CCC[C@H]1C(=O)N[C@@H](CO)C(=O)N[C@@H](CO)C(=O)N[C@H](C(=O)N[C@@H](CC(N)=O)C(=O)N[C@H](C(=O)NCC(=O)N[C@@H](CO)C(=O)N[C@@H](Cc1c[nH]cn1)C(=O)N[C@H](C(=O)N[C@@H](Cc1ccc(O)cc1)C(N)=O)[C@@H](C)O)C(C)C)[C@@H](C)O, synthetic analogue of human amylin; also called compound 66)	20.8	45.5	35.8	0.581
K([γGlu-C20 diacid])CNTATCATQRLAHFLRHSSPNFGAIPSSTPVGSNTY-NH2 (disulfide 2-7; N-terminus assumed; SMILES CC[C@H](C)[C@H](NC(=O)[C@H](C)NC(=O)CNC(=O)[C@H](Cc1ccccc1)NC(=O)[C@H](CC(N)=O)NC(=O)[C@@H]1CCCN1C(=O)[C@H](CO)NC(=O)[C@H](CO)NC(=O)[C@H](Cc1c[nH]cn1)NC(=O)[C@H](CCCNC(=N)N)NC(=O)[C@H](CC(C)C)NC(=O)[C@H](Cc1ccccc1)NC(=O)[C@H](Cc1c[nH]cn1)NC(=O)[C@H](C)NC(=O)[C@H](CC(C)C)NC(=O)[C@H](CCCNC(=N)N)NC(=O)[C@H](CCC(N)=O)NC(=O)[C@@H](NC(=O)[C@H](C)NC(=O)[C@@H]1CSSC[C@H](NC(=O)[C@@H](N)CCCCNC(=O)CC[C@H](NC(=O)CCCCCCCCCCCCCCCCCCC(=O)O)C(=O)O)C(=O)N[C@@H](CC(N)=O)C(=O)N[C@@H]([C@@H](C)O)C(=O)N[C@@H](C)C(=O)N[C@@H]([C@@H](C)O)C(=O)N1)[C@@H](C)O)C(=O)N1CCC[C@H]1C(=O)N[C@@H](CO)C(=O)N[C@@H](CO)C(=O)N[C@H](C(=O)N1CCC[C@H]1C(=O)N[C@H](C(=O)NCC(=O)N[C@@H](CO)C(=O)N[C@@H](CC(N)=O)C(=O)N[C@H](C(=O)N[C@@H](Cc1ccc(O)cc1)C(N)=O)[C@@H](C)O)C(C)C)[C@@H](C)O, synthetic analogue of human amylin; also called compound 62)	18	63	42.8	0.42
K([γGlu-C20 diacid])CNTATCATQRLAHFLRHSSPNFGAIPSSTNVGPNTY-NH2 (disulfide 2-7; N-terminus assumed; SMILES CC[C@H](C)[C@H](NC(=O)[C@H](C)NC(=O)CNC(=O)[C@H](Cc1ccccc1)NC(=O)[C@H](CC(N)=O)NC(=O)[C@@H]1CCCN1C(=O)[C@H](CO)NC(=O)[C@H](CO)NC(=O)[C@H](Cc1c[nH]cn1)NC(=O)[C@H](CCCNC(=N)N)NC(=O)[C@H](CC(C)C)NC(=O)[C@H](Cc1ccccc1)NC(=O)[C@H](Cc1c[nH]cn1)NC(=O)[C@H](C)NC(=O)[C@H](CC(C)C)NC(=O)[C@H](CCCNC(=N)N)NC(=O)[C@H](CCC(N)=O)NC(=O)[C@@H](NC(=O)[C@H](C)NC(=O)[C@@H]1CSSC[C@H](NC(=O)[C@@H](N)CCCCNC(=O)CC[C@H](NC(=O)CCCCCCCCCCCCCCCCCCC(=O)O)C(=O)O)C(=O)N[C@@H](CC(N)=O)C(=O)N[C@@H]([C@@H](C)O)C(=O)N[C@@H](C)C(=O)N[C@@H]([C@@H](C)O)C(=O)N1)[C@@H](C)O)C(=O)N1CCC[C@H]1C(=O)N[C@@H](CO)C(=O)N[C@@H](CO)C(=O)N[C@H](C(=O)N[C@@H](CC(N)=O)C(=O)N[C@H](C(=O)NCC(=O)N1CCC[C@H]1C(=O)N[C@@H](CC(N)=O)C(=O)N[C@H](C(=O)N[C@@H](Cc1ccc(O)cc1)C(N)=O)[C@@H](C)O)C(C)C)[C@@H](C)O, synthetic analogue of human amylin; also called compound 67)	14.7	51.6	85.4	0.172
